The nanobody polyreactivity screen of Harvey et al. (2022)

Experiment: yeast display, Sf9 membrane polyspecificity reagent, FACS + sequencing; frameworks hold sequencing errors
Outline: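 Synthetic nanobody libraries on Saccharomyces cerevisiae BJ5465 were galactose-induced for 36–48 hours, stained 1 hour at 4 °C with 10% biotinylated, detergent-solubilized Sf9 membrane reagent and enriched on streptavidin microbeads. FACS then separated cells into low and high (top ~1%) gates by anti-HA (expression) and streptavidin (reagent binding) fluorescence. Genes were colony-PCR amplified, MiSeq 2 × 250 sequenced and CDR-length filtered. A clone's polyreactivity label is that of its gate of origin.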

Sequence | polyreactivity (PSR sort gate)
QVQLVESGGGLVQAGGSLRLSCAASGSIFTWYAMGWYRQAPGKERELVAAITRGGSTYADSVKGRFTISRDNAKNTVYLQMNSLKPEDTAVYYCNAVYGVYDFNYWGHGTQVTVSS | low polyreactivity
QVQLVESGGGLVQAGGSLRLSCAASGSIFTFYAMGWYRQAPGKERELVATINRIGGNTYYADSVKGRFTISRDNAKNTVYLQMNSLKPEDTAVYYCAKLYGSANGYDYWGQGTQVSVSS | low polyreactivity
QVQLVESGGGLVQAGGSLRLSCAASGSTFPGYAMGWYRQAPGKERELVAAGGSTYYADSVKGRFTISRDNAKNTVYLEMNCLKPEETAVYYCAATWGSVQKGTYYYWGQGTQVTVSS | low polyreactivity
QVQLVESGGGLVQAGGSLRLSCAASGSIFYVNTMGWYRQAPGKERELVAGITSRGGSTYYADSVKGRFTISRDNAKNTVYLQMNSLKPEDTAVYYCAKRAYGTALYRGYGYWGQGTQVTVSS | low polyreactivity
QVQLVESGGGLVQAGGSLRVSCAASGSTFFRYVMGWYRQAPGNERELVARITSSGSTYYADSVKGRFTISRDNAKNTVYLQMNSLKPEDTAVYYCAAVYASYPYRTKFYYWGQGTQVTVSS | high polyreactivity
QVQLVESGGGLVQAGGSLRLSCAASGIIFRFYARGWYRQAPGKERELVAAISSSGTRTYYADSVKGRFTISRDNAKNTVYLQMNSLKPEETAVYYCNAAYHYYDYDYWGQGTQVTVSS | high polyreactivity
QVQLVESGGGLVQAGGSLRLSCAASGFTFYYYAMGWYRQAPGKERELVASISWRGGSTYYADSVKGRFTISRDNAKNTVYLQMNSLKPEDTAVFYCAAQKRGSPGYRRDYWGQGTQVTVSS | high polyreactivity
QVQLVESGGGLVQAGGSLRLSCAASGITFRSYAMGWYRQAPGKERELVAAISTSGGRTYYADSVKGRFTISRDNAKNTVYLQMNSLKPEDTAVYYCNKVGAVYGYYAYGLGYWGQGTQVTVSS | high polyreactivity
QVQLVESGGGLVQAGGSLRLSCAASGSISVVNMGWYRQAPGKERELVASITSSGSTTYADSVKGRFTISRDNAKNTVYLQMNSLKPEDTAVYYCAAVRCRSQPYWYHSMDHWGQGTQVTVSS | low polyreactivity
QVQLVESGGGFVQAGGSLRLSCAASGRIFKWYAMGWYIQAPGKERELVAAITSGGSTYYADSVKGRFTISRDNAKNTVYLQMNSLKPEDTAVYYCNTALTRWYNQYDYWGQGTLVTVSS | high polyreactivity
QVQLVESGGGLVQAGGSLRLSCAASGSIFKYYTRGWYRQAPGKERELVAAISGSGGTTYYADSVKGRFTISRDNAKNTVYLQMNSLKPEDTAVYYCATAYYRAFRGDYWGQGTQVTVSS | high polyreactivity
QVQLVESGGGFVQAGGSLRLSCAASGRIFRTNAMGWYRQAPGKERELVAAITSSGTRTYYADSVKGRFTISRDNAKNTVYLQMNSLKPEDTAVYYCAAGGGHSMYYWGQGTQVTVSS | high polyreactivity
QVQLVESGGGLVQAGGSLRLSCAASGFTFTAYAMGWYRQAPGKERELVAAISSGGSTYYADSVKGRFTISRDNAKNTVYLQMNSLKPEDTAVYYCSAVGVYTVKRDYWGQGTQVTVSS | low polyreactivity
QVQLQESGGGLVQEGGSLRLSCAASGNISPPADMGWYRQAPGKERELVASIGTGGTTNYADSVKGRFTISRDNAKNTVYLQMNSLQPDDTAVYYCAAVRYEYNPYDYWGQGTQVTVSS | low polyreactivity
QVQLVESGGGLVQAGGSLRISCAASGFIIFEYDMGWYRQAPGKERDFVAAINFSGGSTYYADSEKGRFTISRDNAKNTVYLQMNSLKPEDTAVYYCAADVVRYYYTYDYWGQGTQVTVSS | low polyreactivity
QVQLLESGGGLVQAGGSLRLSCAASGYTFRFNAMGWNRQAPGKETEFVAAIDFGGAGTYYADSVKGRFTISRDNAKNTVYLQMNSLKPEDTAVYYCNARDGVTTEFDYWGQVTQVTVSS | low polyreactivity
QVQLVESGGGLVQAGCSLRLSCAASGGTFSLNAMGCYRQAPGKERELVAAITWTGDRTYYADSVKGRFTISRDNAKNTVYLQMNSLKPEDTAVYYCAAVGGYYPGDYWGQGTQVTVSS | low polyreactivity
QVQLVESGGGLVQAGGSLRLSCAASGSIFSRYTMGWYRQAPGKERELVAVISTSGGSTYYADSVKGRFTISRDNAKNTVYLQMNSLKPEDTAVYYCNARPKRGSLGGPGYGYWGQGTQVTVSS | high polyreactivity
QVQLVESGGGLVQAGGSLRLSCAASGSTFYTYAMGWYRQAPGKERELVAAISGSGGRTYYADSVKGRFTISRDNAKNTVYLQMNSLKPEDTAVYYCAAYSYRKHATGSRDMDYWGQGTQVTVSS | high polyreactivity
QVQLVESGGGLVQAGGSLRLSCAASGLIFEYYAMGWYRQAPGKERELVAVINWSGASTYYADSVKGRFTISRDNAKNTVYLQMNSLKPEDTAVYYCAAGVLITGLRFDYWGQGTQVTVSS | low polyreactivity
QVQLVESGGGLVQAGGSLRLSCAASGRIFGENALGWYRQAPGKEREFVAVISISDASTYYADSVKGRFTISRDNAKNTVYLQMISLKPEDTAVYYCAAELTDFLYVASDYWGQGTQVTVSS | low polyreactivity

Sequence | polyreactivity (PSR sort gate)
QVQLVESVGGLVQAGGSLRLSCAASGTIFGWYAMGWYRQAPGKEREMVATIDASGRSTFYADTVKGRFTISRDNAKNTVYLQMNSLKPEDTAVYYFNSRYPRQYWGGYDYWGQGTQVTVSS | low polyreactivity
QVQLEESGGGLVQAGGSLRLSCAASGSTFWFNAMGWYRQAPGKERELVAVITWSGDGTYYADSVKGRFTISRDNANYTVYLQRNSLKPEDTAVYYCAKGFERYPWYDYWGQGTQVTVSS | low polyreactivity
QVQIVESGGGLVQAGGSLRLSCAASGRTFGIYAMGWYRQAPGKERELVDAIRWRDGSTYYADSVKGRFTISRDNAKNTVYLQMTSLKPEDTAVYYCAATSRVYVRGSYWKYGYWGQGTQVTVSS | high polyreactivity
QVQLVESGGGLVQAGGSLRLSCAASGFIFYSNAMGWYRQAPGKERELVAAIRSTGSTSYADSVKGRFTISRDNAKNTVYLQMNILKPEDTAVYYCAKVRYWRGYDYWGQGTQVTVSS | high polyreactivity
QVQLVESGGGLVQAGGSLRLSCAASGSTIYTYVMGWYIQAPGKERELVAAISWSGSSTYYADSVKGRCTISRDNAKNTVYLQINSLKPEDTAVYYCNAKYRRGWWGVEYGYWGQGTQVTVSS | low polyreactivity
QVQLVESGGGLVQAGGRLRLSCAASGRTFGRYAMGWYRQAPGKERELVAAITGGVITTYADSVKGRFTISRDNAKNTVYLQMNSLKPEDTAVYYCAARYNVFPSPHYYYWGQGTQVTVSS | low polyreactivity
QVQLVESGGGLVQAGGSLRLSCAASGIIFGGNVMGWYRQAPGKERELVAAITWSGGTTYYADSVKGRFTISRDNAKNTVFLQMNSLKPEDTAVYYCAADRVYLDYVAGTYDYWGQGTQVTVSS | low polyreactivity
QVQLVESGGGLVQAGGSLRLSCAASGSIFSVNTMGWYRQAPGKERELVAAISESGDGTYYADSVKGRFTISRDNAKNTVYLQMNSLKPEDTAVYYCNADRQKGGGYYPHEFDYWGQGTQVTVSS | low polyreactivity
QVQLVESGGGLVQAGGSLRLSCAASGRTLTRYAMGWYRQAPGKERELVATISRCGSTNYADSVKGRFTISRDNGKNTVYLQMNSLKPEDTAVYYCAARGRLTAEFDYWGQGTQVTVSS | low polyreactivity
QVQLVESGGGLVQAGGSLRLSCAASGITFTGYAMGWYRQAPGKERELVAAITWSSGSTYYADSVKGRFTISRDNAKNTVYLQMNSLKPEDTAVYYCNTDYGRYLYYRYGYWGQGTQVTVSS | low polyreactivity
QVQLVESGGGLVQAGGSLRLSCAASGFTFGPYDMGWYRQAPGKERELVAAITDSSGSTHYADSVKGRFTISRDNAKNTVYLQMNSLKPEDTAVYYCAAVVYYTFDYWGQGTQVTVSS | low polyreactivity
QVQLVESGGGLVQAGGSLRLSCAASGLIIDGYAMGWSRQAPGKERELVATITVSGTSTYYADSVKGRFTISRDNAKNTVYLQMNSLKPEDTAVYYCDTDRNYGYYFVEYDHDYWGQGTQVTVSS | low polyreactivity
QVHLEDSGGGLVQAGVILRLSSPASGSIFVYNAMGWYRPAPGKERELVAAISSSGGSTYYADSVKGRFTISRDNAKNTVYLQMNSLKPEDTAVYYCAAEAVRKVPSYYSYAYYYWGQGTQVTVSS | high polyreactivity
QVQVVESGGGLVQAGGSLRLSCAASGWYNAMGWYRQAPGKERELVAAISWDGDSTYYADSVKGRFTISRENAKNTVYLQMNSLKPEDTAVYYCAATQSTGRGRYYYWGKGTQVTVSS | high polyreactivity
QVQLQESGGGLAQAGGSLRLSCAASGTIFPADSMGWYRQAPGKERELVAGITTGANTYYADSVKGRFTISHDNAKNTVYLQMDSLIPEDIALYYCAAPGSSTYDLEYWGQGTQVTVSS | high polyreactivity
QVQLVESGGGLVQAGGSLRLSCAASGSIFDINAMGWYRQAPGKEREFVAAISWSGGTTYYADSVKGRFTISRDNAKNPVYLQMNSLKPEDTAVYYCAALSYVKRRQSYGYWGLGTQVTVSS | high polyreactivity
QVHLVESVGGLVQAGGSLRLSCAASGRTFRRYAMVWYRQAPGKERELVATITSADSTNYADSVKGRFTISRDNAKNTVYLQMNSLKPEDTAVYYCAKRWGRYAMYYWGQGTQVTVSS | high polyreactivity
QVQLVESGGGLVQAGGSLRLSCAASGFIFWSYAMGWYRQAPGKERELVAAINTSTGRTYYADSVKGRFTISRDNAKNTVYLQMNSLKPEDTAVYYCAADLPWGPLFDYWGQGTQVTVSS | low polyreactivity
QVQLVESGGGLVQAGGSLRLSCAASGSIFWPYAMGWYRQAPGKEREFVAAITWSGGSTYYADSVKGRFTISRDNAKNTVYLQMNSLKPEDTAVYYCAAEITWYYHDFGYWGQGTQVTVSS | high polyreactivity
QVQHVESGGGLVQAGGSLRLSCAASGSTFYGNAMGWYRQAPGKEREFVASINSRGGITYYADSVKGRFTISRDNAKNTVYLQMNSLKPEDTAVYYCNTRVLSFYHYPYDYWGQGTQVTVSS | high polyreactivity
